From US20140086913A1 (Gilead, published 2014) come the findings set out here.

Sequences and labels used below:
B1: AB2078 (antibody, V domains shown)
VH: EIQLQQSGPELVNPGASVKVSCKASGYSFTDYNMYWVKQSHGKSLEWIGYIDPYNGGTSYNQKFKGKATLTVDKSSSTAFMHLNSLTSEDSAVYYCAREYYGSRLWYFDVWGAGTAVTVSS
VL: DIVMTQSPSSLAMSVGQKVTMSCKSSQSLLNRNNQKNYLAWYQQKPGQSPKLLVYFASTRESGVPDRFIGSGSGTDFTLTLSSVRAEDLAENFCQQHYSTPFTFGSGTRLEIKR
notes: mouse hybridoma mAb
B2: AB2039 (antibody, V domains shown)
VH: EVQLVESGGGLVQPGGSLKFSCAASGFTFSSYGMSWVRQTPDKRLELVAIINSHGFSTYYPDSVKGRFTISRDNAKNTLYLQMSSLKSEDTAIYYCARGGYGNYGMDYWGQGTSVTVSS
VL: DIVLTQSPASLAVSLGQRATISCRASESVDSYGNSFMHWYQQKVGQPPKLLIFRASNIESGIPARFSGSGSRTDFTLTINSVEADDVATYYCQQSNEAPYTFGGGTKLEIKR
notes: mouse hybridoma mAb; also called AB0039
B3: AB2010 (antibody, V domains shown)
VH: QVQLKQSGPGLVQPSQSLSITCTVSGFSFTGYGIHWVRQSPGKGLEWLGVIWSGGITDYNAAFISRLSISMDSSKGQVFFKMNSLQANDTAIYYCARRSTTVVADYAMDYWGQGTSVTVSS
VL: SIVMTQTPKFLLVSAGDRVTITCKASQSVSNDVAWYQQKPGQSPKLLIYYASNRYTGVPDRFTGSGYGTDFTFTINTVQAEDLAVYFCQQDYTSPLTFGAGTKLELKR
notes: mouse hybridoma mAb
B4: AB2092 (antibody, V domains shown)
VH: QIQLVQSGPELKKSGETVKISCKASGYTFTDYGMNWVKQAPGKGLKWMGWINTYTGKSTYADDFKGRFAFSLETSASTTYLQITNLKNEDMATYFCARWADYFGSSYLFASWGQGTLVTVSA
VL: DVLMTQTPLSLPVSLGDQASISCRSSQSIVHSDGNTYLEWYLQKPGQSPKLLIYKVSNRFSGVPDRFSGSGSGTDFTLKISRVEAEDLGIYYCFQGSHVPWTFGGGTKLEIKR
notes: mouse hybridoma mAb
B5: AB2041 (antibody, V domains shown)
VH: QVQLHQSGSELAKPGASVKMSCKASGYIFTTYWIHWLKQRPGQGLEWIGFINPDTDYTEYNQKFKDKATLTADKSSNTAYVQLSSLTSEDSAVYYCARGNYGYDGLVYWGLGTLVTVSA
VL: SIVMTQTPKFLLVSAGDRVTITCKASQSVSTDVAWYQQKPGQSPKLLIYYASNRYTGVPDRFTGSGYGTDFTFTISTVQAEDLAVYFCQQDYNSYTFGGGTKLEIKR
notes: mouse hybridoma mAb
B6: AB2004 (antibody, V domains shown)
VH: DVHLQESGPDLVKPSQSLSLTCTVTDYSITSGYGWHWIRQFPGNKLEWMGYIHYGGSTKYNSSLKSRISITRDTSKNQFFLQLKSVTTDDTGTYYCATSGNYGFAYWGQGTLVTVSA
VL: DIVLTQSPTSLAVSLGQRATMSCRASESVDDYGTSFMHWYQQKPGQPPKLLIYRASNLESGIPARFSGSGSRADFTLSINPVEPDDVATYYCQQSNEDPFTFGSGTKLEIKR
notes: mouse hybridoma mAb

T3 sequence (Q08345 21-416): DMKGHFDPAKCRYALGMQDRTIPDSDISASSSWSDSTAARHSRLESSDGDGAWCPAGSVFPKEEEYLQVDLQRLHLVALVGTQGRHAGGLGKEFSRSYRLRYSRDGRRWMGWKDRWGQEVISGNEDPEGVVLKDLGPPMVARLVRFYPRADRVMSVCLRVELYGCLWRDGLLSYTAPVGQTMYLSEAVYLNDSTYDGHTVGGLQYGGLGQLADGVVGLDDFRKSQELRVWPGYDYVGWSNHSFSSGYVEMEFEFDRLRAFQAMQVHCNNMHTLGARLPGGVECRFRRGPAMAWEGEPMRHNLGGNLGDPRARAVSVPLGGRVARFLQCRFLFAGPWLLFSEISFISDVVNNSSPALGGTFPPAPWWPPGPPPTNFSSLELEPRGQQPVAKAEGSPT

For one assay, the target named is T1, mouse ECD-DDR1-Fc (mouse; human, UniProt Q03146 22-414).
T1 construct: also called mouse DDR1-ECD; wild-type mouse DDR1-ECD; not shown: human IgG1 Fc of the vector pFuse-hIgG1-Fc1 (Invivogen)
T1 sequence: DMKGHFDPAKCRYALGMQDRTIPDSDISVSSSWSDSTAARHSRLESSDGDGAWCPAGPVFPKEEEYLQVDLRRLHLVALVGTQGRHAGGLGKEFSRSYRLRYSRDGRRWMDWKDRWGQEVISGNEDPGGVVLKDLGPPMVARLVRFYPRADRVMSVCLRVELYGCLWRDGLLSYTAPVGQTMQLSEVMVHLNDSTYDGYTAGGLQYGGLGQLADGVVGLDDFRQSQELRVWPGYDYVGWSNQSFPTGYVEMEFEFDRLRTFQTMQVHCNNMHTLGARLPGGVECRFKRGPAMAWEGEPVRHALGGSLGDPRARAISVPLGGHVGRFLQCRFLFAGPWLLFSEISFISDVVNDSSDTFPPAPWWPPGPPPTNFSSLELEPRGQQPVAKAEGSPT
Description: ELISA, coated antigen, apparent KD. A digest of the protocol: (§1)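 Plates coated overnight at 4° C with 2 μg/mL purified tagged DDR1 ECD protein, BSA-blocked; serially diluted murine anti-DDR1 mAbs bound 1 hr at room temperature, detected with anti-mouse IgG-HRP and TMB (OD 450). Apparent KD taken as C-parameter of 4-parameter logistic fit of OD versus antibody concentration.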
(In general: An ELISA detects its analyte on a solid surface through an enzyme-linked reagent.)
Regarding B1, the Kd came out at 10900 pM.

With B2, the Kd came to 2370 pM.

As to B3, the Kd stood at 33700 pM.

For the molecule B4, the Kd turned out to be 1190 pM.

In another assay the target is T2, DDR1ECD-Fc (R&D Systems, Catalog #2396-DR) (human, UniProt Q08345 21-416).
T2 construct: range 21-416; construct as described for the bought immunogen; also called human ECD-DDR1-Fc; Fc-ECD-DR1; not shown: human IgG1, Pro100-Lys330
T2 sequence (Q08345 other isoform, or with tags, fused parts or gaps limits assumed): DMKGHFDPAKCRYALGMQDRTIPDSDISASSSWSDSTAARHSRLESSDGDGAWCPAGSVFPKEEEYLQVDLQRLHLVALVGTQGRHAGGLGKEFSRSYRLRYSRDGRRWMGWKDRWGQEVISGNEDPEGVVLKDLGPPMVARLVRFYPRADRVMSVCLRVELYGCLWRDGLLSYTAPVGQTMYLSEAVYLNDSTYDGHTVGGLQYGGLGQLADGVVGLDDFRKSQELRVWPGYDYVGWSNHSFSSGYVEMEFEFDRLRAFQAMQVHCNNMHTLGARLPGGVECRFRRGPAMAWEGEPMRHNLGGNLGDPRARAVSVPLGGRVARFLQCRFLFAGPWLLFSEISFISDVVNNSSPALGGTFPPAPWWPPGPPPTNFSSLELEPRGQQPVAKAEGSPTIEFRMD
Description: ELISA, coated antigen, apparent KD. An outline of the steps:
as §1
As for B1, the Kd was 374 pM.

As for B2, the Kd is 346 pM.

With B5, the Kd amounted to 561 pM.

With B3, the Kd amounted to 431 pM.

With B6, the Kd is 154 pM.

With B4, the Kd was found to be 287 pM.

A further assay has as its target T3, human ECD-DDR1-His protein (human, UniProt Q08345 21-416).
T3 construct: also called huDDR1-ECD-His; DDR1ECD-6Xhis; not shown: His tag
Description: ELISA, coated antigen, apparent KD. An outline of the steps:
as §1
For B1, the Kd was determined as 554 pM.

Consider B2, for which the Kd stood at 205 pM.

As to B5, the Kd came out at 617 pM.

Regarding B3, the Kd amounted to 398 pM.

For the molecule B6, the Kd stood at 181 pM.

B4: the Kd was found to be 275 pM.

A further assay has as its target DDR1 endogenously expressed on human cancer cell lines (T47D, HCT-116, A431) (human) (UniProt Q08345). Kind of assay: cell-based or functional assay.
B1 registered an EC50, DDR1 phospho-specific ELISA (T47D) of 390 pM; an EC50, cluster formation assay (A431 cells) of 1820 pM; a Maximal inhibition, DDR1 phospho-specific ELISA (T47D) of 100%; an NPI of cluster formation at 66 nM (A431 cells) of 123%.

In turn, B2 came in with an EC50, DDR1 phospho-specific ELISA (T47D) of 430 pM; an EC50, cluster formation assay (A431 cells) of 930 pM; a Maximal inhibition, DDR1 phospho-specific ELISA (T47D) of 100%; an NPI of cluster formation at 66 nM (A431 cells) of 103%.

B3 registered an EC50, DDR1 phospho-specific ELISA (T47D) of 630 pM; an EC50, cluster formation assay (A431 cells) of 4840 pM; a Maximal inhibition, DDR1 phospho-specific ELISA (T47D) of 100%; an NPI of cluster formation at 66 nM (A431 cells) of 108%.

The molecule B6 yielded an EC50, DDR1 phospho-specific ELISA (T47D) of 430 pM; an EC50, cluster formation assay (A431 cells) of 2280 pM; a Maximal inhibition, DDR1 phospho-specific ELISA (T47D) of 100%; an NPI of cluster formation at 66 nM (A431 cells) of 110%.

A further assay shares this target. Kind of assay: flow cytometry, HCT116 cells.
On to B1, for which the MFI turned out to be 1480 MFI.

Consider B2, for which the MFI is 1490 MFI.

Consider B5, for which the MFI was determined as 1270 MFI.

The molecule B3 yielded an MFI of 1730 MFI.

In turn, B6 displayed an MFI of 1490 MFI.

In turn, B4 yielded an MFI of 1310 MFI.

For a further assay, the target named is human DDR1 (isoform B) stably expressed on HEK293 cells (human) (UniProt Q08345). Description: flow cytometry, HEK293/hDDR1.
Chain of human DDR1 (isoform B) stably expressed on HEK293 cells (human) (Q08345 19-913): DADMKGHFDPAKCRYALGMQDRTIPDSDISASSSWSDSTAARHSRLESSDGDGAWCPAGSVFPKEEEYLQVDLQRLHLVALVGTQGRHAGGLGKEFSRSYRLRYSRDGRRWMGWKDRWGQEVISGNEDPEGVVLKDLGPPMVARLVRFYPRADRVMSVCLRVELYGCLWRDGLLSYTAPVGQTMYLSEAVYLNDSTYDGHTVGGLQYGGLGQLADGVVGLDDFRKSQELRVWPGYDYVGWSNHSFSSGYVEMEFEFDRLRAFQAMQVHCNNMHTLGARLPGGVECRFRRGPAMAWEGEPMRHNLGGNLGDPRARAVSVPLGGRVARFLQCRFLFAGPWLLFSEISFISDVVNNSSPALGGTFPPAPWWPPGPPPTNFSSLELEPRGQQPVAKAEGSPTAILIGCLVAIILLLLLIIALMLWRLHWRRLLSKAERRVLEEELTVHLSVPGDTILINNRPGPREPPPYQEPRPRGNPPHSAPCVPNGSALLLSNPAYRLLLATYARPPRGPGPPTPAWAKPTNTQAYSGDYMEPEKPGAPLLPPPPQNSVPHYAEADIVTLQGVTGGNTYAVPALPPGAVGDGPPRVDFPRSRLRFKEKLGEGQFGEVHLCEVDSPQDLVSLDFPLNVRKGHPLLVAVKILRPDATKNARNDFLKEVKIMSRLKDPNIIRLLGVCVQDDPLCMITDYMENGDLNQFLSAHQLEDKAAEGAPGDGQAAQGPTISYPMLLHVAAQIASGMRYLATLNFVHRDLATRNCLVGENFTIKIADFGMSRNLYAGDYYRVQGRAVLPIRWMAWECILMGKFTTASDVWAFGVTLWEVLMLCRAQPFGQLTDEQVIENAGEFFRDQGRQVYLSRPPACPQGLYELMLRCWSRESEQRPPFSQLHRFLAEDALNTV
B1 showed an MFI of 7490 MFI.

Turning to B2, the MFI amounted to 8020 MFI.

In turn, B5 gave an MFI of 12500 MFI.

B3 gave an MFI of 17800 MFI.

Molecule B6 displayed an MFI of 14400 MFI.

As for B4, the MFI was found to be 6020 MFI.

A further assay concerns the target T4, human DDR2 stably expressed on HEK293 cells (human, UniProt Q16832 22-855).
T4 construct: whole, on cells; also called hDDR2
T4 sequence (looked up): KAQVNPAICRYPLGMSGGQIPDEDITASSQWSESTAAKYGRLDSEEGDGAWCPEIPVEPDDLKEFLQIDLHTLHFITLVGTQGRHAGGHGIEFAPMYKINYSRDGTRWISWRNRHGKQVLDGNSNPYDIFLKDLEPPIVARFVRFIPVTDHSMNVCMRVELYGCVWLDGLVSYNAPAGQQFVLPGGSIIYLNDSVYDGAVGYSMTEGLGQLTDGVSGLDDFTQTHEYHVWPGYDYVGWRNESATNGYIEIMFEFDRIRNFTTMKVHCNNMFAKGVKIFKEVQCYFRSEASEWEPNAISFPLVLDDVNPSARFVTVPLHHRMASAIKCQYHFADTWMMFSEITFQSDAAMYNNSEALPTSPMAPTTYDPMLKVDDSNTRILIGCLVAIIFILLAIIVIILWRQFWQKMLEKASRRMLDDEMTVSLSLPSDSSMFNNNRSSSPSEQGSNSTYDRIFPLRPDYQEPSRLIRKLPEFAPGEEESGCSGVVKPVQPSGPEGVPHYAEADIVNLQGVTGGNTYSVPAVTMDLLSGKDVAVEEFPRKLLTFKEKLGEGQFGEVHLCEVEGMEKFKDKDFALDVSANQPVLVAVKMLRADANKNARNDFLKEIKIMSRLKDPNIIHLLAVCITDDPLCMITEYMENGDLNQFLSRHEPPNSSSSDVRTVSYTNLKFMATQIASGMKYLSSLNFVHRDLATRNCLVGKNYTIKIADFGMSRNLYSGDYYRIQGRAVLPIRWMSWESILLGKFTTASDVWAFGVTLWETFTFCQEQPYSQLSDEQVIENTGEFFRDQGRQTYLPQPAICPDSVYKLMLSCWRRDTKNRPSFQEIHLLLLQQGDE
Description: flow cytometry, HEK293/hDDR2. A digest of the protocol: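 Anti-DDR1 mAbs or isotype controls (2 μg per 1×10⁶ cells) were incubated with the stably transfected HEK293 cells at 4 °C for 1 hr, then detected with anti-IgG-PE at 4 °C for 1 hr. Binding was read as flow-cytometry MFI, with vector-only HEK293 background subtracted.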
Regarding B1, the MFI was found to be 380 MFI.

B2 displayed an MFI of 143 MFI.

Take B5: the MFI was determined as 265 MFI.

In turn, B3 displayed an MFI of 647 MFI.

For the molecule B6, the MFI turned out to be 289 MFI.

In the case of B4, the MFI worked out at 133 MFI.

The target of a further assay is DDR1 endogenously expressed on human cancer cell lines (T47D, HCT-116, A431) (human) (UniProt Q08345). Description: flow cytometry, T47D cells.
Molecule B1 yielded an MFI of 4750 MFI.

Consider B2, for which the MFI is 4460 MFI.

Regarding B5, the MFI came out at 2210 MFI.

B3: the MFI amounted to 6730 MFI.

In turn, B6 had an MFI of 5990 MFI.

For the molecule B4, the MFI stood at 3880 MFI.
